# Source: US7825091B2, “Modification of feeding behaviour” (Imperial Innovations Limited, priority 2003, dated 2010)
# Legend:
# [1] = ICV injection, food intake in 24-h fasted rats (studies 1a, 2a); assay type: in vivo, rat; conditions: ICV 3 nmol, vs saline
# Description: (§1) Animals were handled daily after recovery from surgery until completion of the studies.
# (§2) Animals had permanent stainless steel guide cannulas (Plastics One, Roanoke, Va.) stereotactically implanted ICV (intracerebraventricularly) or iPVN (into the hypothalamic paraventricular nucleus).
# [2] = iPVN injection, food intake in 24-h fasted rats (studies 1b, 2b); assay type: in vivo, rat; conditions: iPVN 1 nmol, any time point
# Description: as §1, §2
# Therefore, exendin-4 was injected iPVN at a dose of 0.03 nmol.
molecule,measurement,setting,value
"glicentin (peptide, UniProt P01275 21-89, looked up, Glicentin, proglucagon-derived peptide purchased from Peninsula Laboratories) Glicentin: RSLQDTEEKSRSFSASQADPLSDPDQMNEDKRHSQGTFTSDYSKYLDSRRAQDFVQWLMNTKRNRNNIA",food intake (refeeding) after ICV injection,[1],failed to affect food intake at any time point
same,food intake after iPVN injection,[2],failed to affect food intake at any time point
